From US20160340422A1 (published 2016) come the findings set out here.

Usually EC50 stands for the concentration that produces a half-maximal response.

One assay has as its target Human IL-17A (human, UniProt Q16552 24-155). The experiment in a line: ELISA. For orientation: ELISA stands for enzyme-linked immunosorbent assay.
A further assay has as its target T1, Mouse IL-17A (mouse, UniProt Q62386 26-158).
T1 chain: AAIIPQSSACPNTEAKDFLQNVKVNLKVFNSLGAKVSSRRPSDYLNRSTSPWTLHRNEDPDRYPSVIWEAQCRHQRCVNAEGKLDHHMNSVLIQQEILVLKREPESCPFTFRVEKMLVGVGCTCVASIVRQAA
Briefly: ELISA.

Sequence of Human IL-17A (Q16552 24-155): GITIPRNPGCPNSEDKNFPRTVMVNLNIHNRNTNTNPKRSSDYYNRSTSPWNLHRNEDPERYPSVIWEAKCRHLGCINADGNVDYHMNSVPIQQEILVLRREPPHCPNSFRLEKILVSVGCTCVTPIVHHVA

B1: Control antibody A (antibody, V domains shown)
VH: QVQLKESGPGLVQPSQTLSLTCTVSGFSLTNYYVHWVRQPPGKGLEWMGGVWNDGDTSYNSVLRSRLSITRDTSKSQVLLKMSSLQTEDTATYYCAREGREGFVGYYVMDAWGPGASVTVSS
VL: DIQMTQSPSFLSASVGERVTLSCKASQNINKYLDWFQQKLGEAPKLLIYNADNLHTGIPSRFSGSGSFSDFILTISSLQPEDDATYFCLQRESWPYTFGAGTKLELKR
In the case of B1, the EC50 with Human IL-17A and with Mouse IL-17A was 0.088 nM throughout.
